Source: patent US20070224188A1

Target: biotin-labeled soluble FcRn
Experiment: FcRn ELISA pH 6.0

Sequence of anti-CD20 antibody, IgG1 Fc region, wild type (a, z) (heavy, part): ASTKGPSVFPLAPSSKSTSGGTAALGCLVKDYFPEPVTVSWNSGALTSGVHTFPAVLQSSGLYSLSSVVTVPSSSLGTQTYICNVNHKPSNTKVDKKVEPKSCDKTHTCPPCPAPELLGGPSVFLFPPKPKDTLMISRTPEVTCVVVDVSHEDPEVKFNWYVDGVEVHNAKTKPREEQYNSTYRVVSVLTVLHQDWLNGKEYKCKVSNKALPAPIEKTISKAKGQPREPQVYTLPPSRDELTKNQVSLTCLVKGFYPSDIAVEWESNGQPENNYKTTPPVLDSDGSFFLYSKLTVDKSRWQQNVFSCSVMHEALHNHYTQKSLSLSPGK

anti-CD20 IgG1 T256P (antibody)
FcRn pH6.0 (% of wild type): 190

anti-CD20 IgG1 T256Q (antibody)
FcRn pH6.0 (% of wild type): 64

anti-CD20 IgG1 T256R (antibody)
FcRn pH6.0 (% of wild type): 33

anti-CD20 IgG1 T256S (antibody)
FcRn pH6.0 (% of wild type): 169

anti-CD20 IgG1 T256V (antibody)
FcRn pH6.0 (% of wild type): 114

anti-CD20 IgG1 T256W (antibody)
FcRn pH6.0 (% of wild type): 14

anti-CD20 IgG1 T256Y (antibody)
FcRn pH6.0 (% of wild type): 68

anti-CD20 IgG1 T260S (antibody)
FcRn pH6.0 (% of wild type): 124

anti-CD20 IgG1 T307A (antibody)
FcRn pH6.0 (% of wild type): 233

anti-CD20 IgG1 T307E (antibody)
FcRn pH6.0 (% of wild type): 492

anti-CD20 IgG1 T307M (antibody)
FcRn pH6.0 (% of wild type): 302

anti-CD20 IgG1 V262L (antibody)
FcRn pH6.0 (% of wild type): 525

anti-CD20 IgG1 V264S (antibody)
FcRn pH6.0 (% of wild type): 78

anti-CD20 IgG1 V279A (antibody)
FcRn pH6.0 (% of wild type): 214

anti-CD20 IgG1 V279D (antibody)
FcRn pH6.0 (% of wild type): 367

anti-CD20 IgG1 V279F (antibody)
FcRn pH6.0 (% of wild type): 113

anti-CD20 IgG1 V279G (antibody)
FcRn pH6.0 (% of wild type): 256

anti-CD20 IgG1 V279H (antibody)
FcRn pH6.0 (% of wild type): 173

anti-CD20 IgG1 V279I (antibody)
FcRn pH6.0 (% of wild type): 83

anti-CD20 IgG1 V279K (antibody)
FcRn pH6.0 (% of wild type): 79

anti-CD20 IgG1 V279L (antibody)
FcRn pH6.0 (% of wild type): 78

anti-CD20 IgG1 V279M (antibody)
FcRn pH6.0 (% of wild type): 122

anti-CD20 IgG1 V279N (antibody)
FcRn pH6.0 (% of wild type): 204

anti-CD20 IgG1 V279Q (antibody)
FcRn pH6.0 (% of wild type): 181

anti-CD20 IgG1 V279R (antibody)
FcRn pH6.0 (% of wild type): 130

anti-CD20 IgG1 V279S (antibody)
FcRn pH6.0 (% of wild type): 242

anti-CD20 IgG1 V279T (antibody)
FcRn pH6.0 (% of wild type): 265

anti-CD20 IgG1 V279W (antibody)
FcRn pH6.0 (% of wild type): 162

anti-CD20 IgG1 V279Y (antibody)
FcRn pH6.0 (% of wild type): 139

anti-CD20 IgG1 V379N (antibody)
FcRn pH6.0 (% of wild type): 74

anti-CD20 IgG1 V379Q (antibody)
FcRn pH6.0 (% of wild type): 85

anti-CD20 IgG1 V379S (antibody)
FcRn pH6.0 (% of wild type): 86

anti-CD20 IgG1 V379T (antibody)
FcRn pH6.0 (% of wild type): 109

anti-CD20 IgG1 V427N (antibody)
FcRn pH6.0 (% of wild type): 192

anti-CD20 IgG1 Y373A (antibody)
FcRn pH6.0 (% of wild type): 33

anti-CD20 IgG1 Y373D (antibody)
FcRn pH6.0 (% of wild type): 74

anti-CD20 IgG1 Y373E (antibody)
FcRn pH6.0 (% of wild type): 106

anti-CD20 IgG1 Y373F (antibody)
FcRn pH6.0 (% of wild type): 110

anti-CD20 IgG1 Y373G (antibody)
FcRn pH6.0 (% of wild type): 38

anti-CD20 IgG1 Y373H (antibody)
FcRn pH6.0 (% of wild type): 100

anti-CD20 IgG1 Y373I (antibody)
FcRn pH6.0 (% of wild type): 73

anti-CD20 IgG1 Y373K (antibody)
FcRn pH6.0 (% of wild type): 70

anti-CD20 IgG1 Y373L (antibody)
FcRn pH6.0 (% of wild type): 66

anti-CD20 IgG1 Y373M (antibody)
FcRn pH6.0 (% of wild type): 53

anti-CD20 IgG1 Y373N (antibody)
FcRn pH6.0 (% of wild type): 61

anti-CD20 IgG1 Y373Q (antibody)
FcRn pH6.0 (% of wild type): 55

anti-CD20 IgG1 Y373R (antibody)
FcRn pH6.0 (% of wild type): 107

anti-CD20 IgG1 Y373S (antibody)
FcRn pH6.0 (% of wild type): 74

anti-CD20 IgG1 Y373T (antibody)
FcRn pH6.0 (% of wild type): 82

anti-CD20 IgG1 Y373V (antibody)
FcRn pH6.0 (% of wild type): 69

anti-CD20 IgG1 Y373W (antibody)
FcRn pH6.0 (% of wild type): 75

anti-CD20 IgG1 Y436I (antibody)
FcRn pH6.0 (% of wild type): 194

anti-CD20 IgG1 Y436L (antibody)
FcRn pH6.0 (% of wild type): 172

anti-CD20 IgG1 Y436T (antibody)
FcRn pH6.0 (% of wild type): 115

anti-CD20 antibody, IgG1 Fc region, wild type (a, z)
FcRn6.0 (% of wild type): 100 | FcRn pH6.0 (% of wild type): 100
